Consider one substance from patent US20050283857A1.

Assay [1] has as its target Cad11-12 truncated Bt-R1a cadherin expressed in S2 cells (Manduca sexta). Kind of assay: 125I-Cry1Ab toxin binding saturation assay on S2 cells; dissociation constant (Kcom).
In assay [2] the target is Cad12 truncated Bt-R1a cadherin expressed in S2 cells (Manduca sexta). The assay is described as above.
Assay [3] deals with Manduca sexta cadherin Bt-R1a, full length, expressed in Drosophila S2 cells (Manduca sexta). Described as above.
The target of assay [4] is Cad11-12 truncated Bt-R1a cadherin expressed in S2 cells (Manduca sexta). Kind of assay: 125I-Cry1Ab toxin binding saturation assay on S2 cells; concentration of receptors.
Assay [5] has as its target Cad12 truncated Bt-R1a cadherin expressed in S2 cells (Manduca sexta). The description is as above.
In assay [6] the target is Cad7-12 truncated Bt-R1a cadherin expressed in S2 cells (Manduca sexta). The assay is described as above.
Assay [7] addresses Manduca sexta cadherin Bt-R1a, full length, expressed in Drosophila S2 cells (Manduca sexta). The description is as above.
For assay [8], the target named is Cad11-12 truncated Bt-R1a cadherin expressed in S2 cells (Manduca sexta). Put plainly: 125I-Cry1Ab saturation binding on S2 cell suspensions.

Cry1Ab toxin (ligand): the values for the dissociation constant Kd in assay [1], in assay [2] and in assay [3] were 3.52 nM, 2.87 nM and 3.55 nM, respectively. For the same substance, the Bmax (fmoles/mg protein) came to 3320 in assay [4], 1410 in assay [5], 506 in assay [6] and 625 in assay [7]. In assay [8], this substance showed a fold higher concentration of binding sites than Cad12 of 3 fold.
